Assay results as given in paper PMC11670933.

Target: truncated human NOTCH2^ΔERA-TurboID (human)
Assay: proximity labelling; TurboID fusions stably expressed in HT-29; 500 uM biotin for one hour; streptavidin beads; label-free quantitative mass spectrometry (DIA, Q-Exactive HF X), TurboID alone as control

endogenous human NOTCH2 (NICD2) (natural protein)
Log2FC NICD2RA-vs-NICD2 (log2 fold change): -2.03 | percent of the NOTCH2 recovered (against NICD2-TurboID): 13%
